Assay results published in publication PMC10703879.

Tests used:
[1] = molecular target: BCMAECD-His (monomeric, His-tagged human BCMA extracellular domain) (human) (UniProt Q02223); assay: SPR; heterogeneous ligand, second site (KD2); conditions: VHH
[2] = molecular target: BCMAECD-Fc (dimerized, Fc-tagged human BCMA extracellular domain) (human) (UniProt Q02223); assay: SPR; heterogeneous ligand, second site (KD2); conditions: VHH
[3] = molecular target: BCMAECD-His (monomeric, His-tagged human BCMA extracellular domain) (human) (UniProt Q02223); assay: SPR; heterogeneous ligand, second site (kd2); conditions: VHH
[4] = molecular target: BCMAECD-Fc (dimerized, Fc-tagged human BCMA extracellular domain) (human) (UniProt Q02223); assay: SPR; heterogeneous ligand, second site (kd2); conditions: VHH
[5] = molecular target: BCMAECD-His (monomeric, His-tagged human BCMA extracellular domain) (human) (UniProt Q02223); assay: SPR; heterogeneous ligand, first site (kd1); conditions: VHH
[6] = molecular target: BCMAECD-Fc (dimerized, Fc-tagged human BCMA extracellular domain) (human) (UniProt Q02223); assay: SPR; heterogeneous ligand, first site (kd1); conditions: VHH
[7] = molecular target: BCMAECD-Fc (dimerized, Fc-tagged human BCMA extracellular domain) (human) (UniProt Q02223); assay: SPR; heterogeneous ligand, first site (KD1); conditions: VHH
[8] = molecular target: BCMAECD-Fc (dimerized, Fc-tagged human BCMA extracellular domain) (human) (UniProt Q02223); assay: SPR; Biacore 8K, 25 °C, 10 mM HEPES pH 7.4, 150 mM NaCl, 0.05% Tween 20; BCMAECD-Fc immobilised by amine coupling on CM5; nanobodies as analytes (five two-fold dilutions); Langmuir model for Nb1 and Nb2, heterogeneous ligand model for NbT
[9] = molecular target: BCMAECD (synthesized extracellular domain of human B-cell maturation antigen, residues 1-54) (human) (UniProt Q02223); assay: AUC; sedimentation velocity; complexes formed by mixing nanobody with excess BCMAECD (molar ratio 1:4, overnight at 4 °C); 1 mg/ml, 45,000 rpm, 20 mM Tris pH 8.0, 100 mM NaCl, 4 °C
Sequence of BCMAECD (synthesized extracellular domain of human B-cell maturation antigen, residues 1-54) (human) (Q02223 1-54): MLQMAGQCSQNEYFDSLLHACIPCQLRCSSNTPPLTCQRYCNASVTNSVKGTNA

[10] = molecular target: BCMAECD-His (monomeric, His-tagged human BCMA extracellular domain) (human) (UniProt Q02223); assay: SPR; Biacore 8K, 25 °C, 10 mM HEPES pH 7.4, 150 mM NaCl, 0.05% Tween 20; BCMAECD-His immobilised by amine coupling on CM5; nanobodies as analytes (five two-fold dilutions); Langmuir model for Nb1 and Nb2, heterogeneous ligand model for NbT

Sequence of BCMAECD-Fc (dimerized, Fc-tagged human BCMA extracellular domain) (human) (Q02223 1-54): as above
Sequence of BCMAECD-His (monomeric, His-tagged human BCMA extracellular domain) (human) (Q02223 1-54): as above

Substance	Kd [1]	Kd [2]	koff [3]	koff [4]	koff [5]	koff [6]	Kd [7]	KD of the higher-affinity site (heterogeneous ligand model) [8]	stoichiometry N (NbT per BCMAECD (printed 2 to 4)) [9]	KD of the stronger site (heterogeneous ligand model) [10]
NbT (cilta-cel nanobody tandem, Nb1 and Nb2 in tandem)	4.27 nM	3.54 nM	0.0191 s⁻¹	0.0133 s⁻¹	0.000118 s⁻¹	3.28e-05 s⁻¹	0.00361 nM			
NbT (cilta-cel nanobody tandem, Nb1 and Nb2 in tandem) (VHH)								0.0036 nM	0.5	0.011 nM
